# Test results from patent US20020177177A1 (PROLIFIX, published 2002).
# Molecular target: T1, E. coli-produced 6X histidine-tagged cyclin D1 (UniProt P24385 1-295, limits assumed)
# T1 construct: also called His-cyclin D1; His-D1; not shown: 6X histidine tag
# Assay: GST pull-down on glutathione-agarose, anti-cyclin D1 Western blot
# Method: To ask which domain or motif of SRC-1 is involved in cyclin D1 binding, we generated a series a GST-SRC1 deletion mutants. […] In the in vitro binding assay, the series of GST-containing proteins were incubated with bacterially expressed His-tagged cyclin D1 and immobilized on glutathione-agarose. Cyclin D1 binding was detected by Western blot analysis using anti-cyclin D1 antibody. Binding was not detected to GST alone.
# T1 sequence (P24385 whole entry): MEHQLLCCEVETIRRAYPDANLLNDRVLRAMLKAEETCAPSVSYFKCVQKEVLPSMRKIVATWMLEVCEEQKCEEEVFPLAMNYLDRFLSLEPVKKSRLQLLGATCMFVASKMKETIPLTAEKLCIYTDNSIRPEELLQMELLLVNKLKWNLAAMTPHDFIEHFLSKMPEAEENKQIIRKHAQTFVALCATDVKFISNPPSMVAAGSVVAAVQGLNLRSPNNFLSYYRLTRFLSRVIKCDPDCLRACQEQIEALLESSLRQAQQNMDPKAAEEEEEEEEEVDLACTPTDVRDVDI
binder,measurement,value
"GST-SRC1 361-568 (other, human, UniProt Q15788 361-568, looked up, not shown: glutathione-S-transferase (GST) fusion partner) IHIIDREHSGLSPQDDTNSGMSIPRVNPSVNPSISPAHGVARSSTLPPSNSNMVSTRINRQQSSDLHSSSHSNSSNSQGSFGCSPGSQIVANVALNQGQASSQSSNPSLNLNNSPMEGTGISLAQFMSPRRQVTSGLATRPRMPNNSFPPNISTLSSPVGMTSSACNNNNRSYSNIPVTSLQGMNEGPNNSVGFSASSPVLRQMSSQN",binding result,no binding
